In the RNAGym collection of RNA variant scans (doi:10.7554/elife.90254):

B1: LINE1-full (parent)
chain: UACGUAGGUGGUUUUCCCCUGAUAGUGCUAAGGGGGCCUGGAAGUUUGGACUGGGCAGAGCUCAACACAGCGUGGCAAAGUGGCUGUGGCUAGACUGCCUCUCUGGAUUCCUCGUCACUCAGCAGGGCAUCUCUGAGAGAAAUGCC

Variants of: B1
Assay: self-cleavage, relative activity (ratio to wild type); higher = more cleavage; in vitro, sequencing; the parent is a self-cleaving ribozyme

Question: Which self-cleavage does the source give for UACGUAGGUGGUUUUCCCCCGAUAGUGCUAAGGGGGCCUGGAAGUUUGGACUGGGCAGAGCUCAACACAGCGAGGCAAAGUGGCUGUGGCUAGACUGCCUCUCUGGAUUCCUCGUCACUCAGCAGGGCAUCUCUGAGAGAAAUGCC [U20C U73A] here?
Answer: 1.56

Question: Which self-cleavage does the source give for UACGUAGGUGGUUUUCCCCUGAUAGGGCUAAGGGGGCCUGGAAGUUUGGACUGGGCAGAGCUCAACACAGCGUGGCAAAGUGGCUGUGGCUAGACUGCCUCUCUGGAUUUCUCGUCACUCAGCAGGGCAUCUCUGAGAGAAAUGCC [U26G C110U] here?
Answer: 1.75

Question: For UACGUGGGUGGUUUUCCCCUGAUAGUGCUAAGGGGGCCUGGAAGUUAGGACUGGGCAGAGCUCAACACAGCGUGGCAAAGUGGCUGUGGCUAGACUGCCUCUCUGGAUUCCUCGUCACUCAGCAGGGCAUCUCUGAGAGAAAUGCC [A6G U47A], which self-cleavage is on record?
Answer: 0.91

Question: Which self-cleavage does the source give for UACGUAGGUGGUUUUCCCCUGAUAGUGCUAAGGGGGCCUGGAAGUUUGGACUGGGCAGAGCUCAACACAGCGUGGCAAAGUGGCUGUGGCUAGACUGCCUCUCUGGAUUCCACGUCACUCAGCAGGGCAUCUCUGAGAGUAAUGCC [U112A A140U] here?
Answer: 1.79

Question: For UACGUAGGUGGUUUUCCCCUGAUAGUGCUAAGGGGGCCUGGAAGUUUGGACUGGGCAGAGCUCAACACAGCGUGGCAUAGUGGCUGUGGCUAGGCUGCCUCUCUGGAUUCCUCGUCACUCAGCAGGGCAUCUCUGAGAGAAAUGCC [A78U A94G], which self-cleavage is on record?
Answer: 0.46

Question: With UACGUAGGUGGUUUUCCCCUGAAAGUGCUAAGGGGGCCUGGAAGUUUGGACUGGGCAGAGCACAACACAGCGUGGCAAAGUGGCUGUGGCUAGACUGCCUCUCUGGAUUCCUCGUCACUCAGCAGGGCAUCUCUGAGAGAAAUGCC [U23A U62A] as the variant, how does the self-cleavage read?
Answer: 0.05

Question: With UACGUAGGUGGUUUUCCCCUGAUAGUGCUAAGGGGGCCUGGAAGUUUGGACUGGGCAGAGCUCAACACAGCGUGGCUAUGUGGCUGUGGCUAGACUGCCUCUCUGGAUUCCUCGUCACUCAGCAGGGCAUCUCUGAGAGAAAUGCC [A77U A79U] as the variant, how does the self-cleavage read?
Answer: 1.89

Question: For UACGUAGGUGGUUUUCCCCUGAUAGUGCUAAGGGGGCCUGGAAGUUUGGACUGGGUAGAGCUCAACACAGUGUGGCAAAGUGGCUGUGGCUAGACUGCCUCUCUGGAUUCCUCGUCACUCAGCAGGGCAUCUCUGAGAGAAAUGCC [C56U C71U], which self-cleavage is on record?
Answer: 0.07

Question: With UACGUAGGUGGUUUACCCCUGAUAGUGCUAAGGGGGCCUGGAAGUUUGGACUGGGCAGAGCUCAACACAGCGUGGCAAAGUGGCUGUGGAUAGACUGCCUCUCUGGAUUCCUCGUCACUCAGCAGGGCAUCUCUGAGAGAAAUGCC [U15A C90A] as the variant, how does the self-cleavage read?
Answer: 0.02

Question: For UACGUAGGUGGUUUUCCCCUGAUAGUGCUAAGGGGGCCUGGAAGUUUGGCCUGGGCAGAGCUCAACACAGCGUGGCAAAGUGGCUGUGGCUAGACUGCCUCUCUGGAUUCCUCGUCACUCAGCAGGGCAUCUCUGAGAGAAAUGCU [A50C C146U], which self-cleavage is on record?
Answer: 1.9

Question: For UACGUAGGUGGUUUUCCCCUGAUAGUGCUAAGGGGGCCUGGAAGUUUGGACUGGGCAGAGCUCAACACAGCGUGGCAAAGUGGCUGUGGCUAGACUGCCUCUCUGGAUUCCUCGUCACUCGGCAGGGCGUCUCUGAGAGAAAUGCC [A121G A129G], which self-cleavage is on record?
Answer: 1.58

Question: For UACGUAGGUGGUUUUCCCCUGAUAGUGCUAAGGGGGCCUGGAAGUUUGGACUGGGCCGAGCUCAACACAGCGUGGCAAAGUGGCUGUGGCUUGACUGCCUCUCUGGAUUCCUCGUCACUCAGCAGGGCAUCUCUGAGAGAAAUGCC [A57C A92U], which self-cleavage is on record?
Answer: 0

Question: For UACGUAGGUGGUUUUCCCCUGAUAGUGCUAAGGGGGCCUGGAAGUUUGGACUGGGCAGAGCUCAACACAGCGUGGCAAAGUGGCUGUGGCUAGACUGCCACUCUGGAUUCCUCGCCACUCAGCAGGGCAUCUCUGAGAGAAAUGCC [U100A U115C], which self-cleavage is on record?
Answer: 1.22

Question: Which self-cleavage does the source give for UACGUAGGUGGUUUUCCCCUGAUAGUGCUAAGGGGGCCUGGAAGUUUGGACUGGGCGGAGCUCAACACAGCGUGGCAAAGUGGCUGUGGCUAGACUGCCUCUCUGGAUCCCUCGUCACUCAGCAGGGCAUCUCUGAGAGAAAUGCC [A57G U109C] here?
Answer: 0.49

Question: For UACGUAGGUGGUUUUCCCCUGAUAGUGCUAAGGGGGCCUGGAAGUUUGGACUGGGCAGAGCCCAACACAGCGUGGCAAAGUGGCUGUGGCUAGACUGCCUCUCUGGAUUCCUCGUCACUCAGCAGGGCAUCUCUGAGAAAAAUGCC [U62C G139A], which self-cleavage is on record?
Answer: 0.03

Question: For UACGUAGGUGGUUUUCCCCUGAUAGUGCUAAGGGGGCCUGGAAGUUUGGACUGGGCAGAGCUCAACACAGCGUGGCAAAGUGGCUGUGGCUAGACUGCCUCUCUGGUUUCCUCGUCACUCAGCAGGGCAUCUCUGAGAGAGAUGCC [A107U A141G], which self-cleavage is on record?
Answer: 1.52

Question: With UACGUAGGUGGUUUUCCCCUGAUAGUGCUAAGGGGGCCUGGAAGUUUGGACUGGGCAGAGCUCAACACAGCGUGGCAAAGUGGCUGUGACUAGACUGCCUCUCUGGAUUCCUCGUCACUCAGCAGGGCAUCUCUGAGAGUAAUGCC [G89A A140U] as the variant, how does the self-cleavage read?
Answer: 0.02

Question: For UACGUAGGUGGUUUUCCCCUGAUAGUGCUAAGGGGGACUGGAAGUUUGGACUGGGCAGAGCUCAACACAGCGUGGCAAAGUGGCUGGGGCUAGACUGCCUCUCUGGAUUCCUCGUCACUCAGCAGGGCAUCUCUGAGAGAAAUGCC [C37A U87G], which self-cleavage is on record?
Answer: 0.12

Question: For UACGUAGGUGGUUUUCCCCUGAUAGUGCUAAGGGGGCCUGGAAGUUUGGACUGGGCAGAACUCAACACAGCGUGGCAAAGUGGCUGUGGCUAGACUGCCUCUCUGGAUUCCUCGUCACUCAGCAGGGCAUCUCUGAGAGAAAUGCA [G60A C146A], which self-cleavage is on record?
Answer: 0.02

Question: Which self-cleavage does the source give for UACGUAGGUGGUUUUCCCCUGAUAGUGCCAAGGGGGCCUGGAAGUUUGGACUGGGCAGAGCUCAGCACAGCGUGGCAAAGUGGCUGUGGCUAGACUGCCUCUCUGGAUUCCUCGUCACUCAGCAGGGCAUCUCUGAGAGAAAUGCC [U29C A65G] here?
Answer: 0.09
